Holding throughout (assay): cell binding
Assay [1] deals with T1, mouse MAdCAM expressed on cells (mouse, UniProt Q61826 22-405).
T1 construct: whole, on cells
T1 sequence (looked up): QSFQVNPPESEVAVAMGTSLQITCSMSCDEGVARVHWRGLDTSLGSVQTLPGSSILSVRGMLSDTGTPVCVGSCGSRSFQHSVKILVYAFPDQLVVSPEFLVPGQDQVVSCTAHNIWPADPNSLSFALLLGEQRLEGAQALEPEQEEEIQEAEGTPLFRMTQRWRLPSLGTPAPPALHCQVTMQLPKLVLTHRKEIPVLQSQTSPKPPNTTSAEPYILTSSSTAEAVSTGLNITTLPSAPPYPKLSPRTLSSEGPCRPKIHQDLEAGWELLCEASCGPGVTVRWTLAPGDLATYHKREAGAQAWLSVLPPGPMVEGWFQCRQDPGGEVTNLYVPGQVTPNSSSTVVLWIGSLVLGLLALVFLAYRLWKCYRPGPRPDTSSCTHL

Assay [2] deals with T2, human MAdCAM expressed on cells (human, UniProt Q13477 19-382).
T2 construct: whole, on cells; also called MADCAM1
T2 sequence (looked up): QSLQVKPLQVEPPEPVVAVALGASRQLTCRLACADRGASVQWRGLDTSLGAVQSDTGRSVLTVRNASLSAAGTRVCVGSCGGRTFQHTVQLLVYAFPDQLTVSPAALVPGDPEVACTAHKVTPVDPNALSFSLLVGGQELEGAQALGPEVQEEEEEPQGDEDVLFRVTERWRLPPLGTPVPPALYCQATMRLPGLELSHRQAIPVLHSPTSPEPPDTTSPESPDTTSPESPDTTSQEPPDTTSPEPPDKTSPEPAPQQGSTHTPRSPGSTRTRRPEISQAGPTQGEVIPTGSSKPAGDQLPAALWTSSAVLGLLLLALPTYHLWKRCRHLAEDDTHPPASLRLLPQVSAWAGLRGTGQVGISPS

Assay [3] has as its target T1, mouse MAdCAM expressed on cells. The source holds these as a separate data set.

Read-outs that look alike come from different tables or passages of the source.

B1: MAdCAM antibody Clone ID 42 of Table 6 (scFv) (scFv)
scFv: QVQLVQSGAEVKKPGSSVKVSCKASGGTLSRYGVSWVRQAPGQGLEWMGGIIPIFGTTNYAQKFQGRVTITADESTSTAYMELSSLRSEDTAVYYCARDRVYYDSSGYPTWYFDLWGRGTLVTVSSGGGGSGGGGSGGGGSGGGGSEIVMTQSPATLSVSPGERATLSCRASQSVSSSYLAWYQQKPGQAPRLLIYGASTRATGIPARFSGSGSGTEFTLTISSLQSEDFAVYYCQQYGSSPITFGQGTKVEIK
With B1, the binding result in assay [1] was “no binding”; in assay [2], “binds”.

B2: MAdCAM antibody Clone ID 43 of Table 6 (scFv) (scFv)
scFv: EVQLLESGGGLVQPGGSLRLSCAASGFTFDDFAMHWVRQAPGKGLEWVSGISGNGDSRYYADSVKGRFTISRDNSKNTLYLQMNSLRAEDTAVYYCARDASYGGNYGMDVWGQGTTVTVSSGGGGSGGGGSGGGGSGGGGSDIQMTQSPSSLSASVGDRVTITCQASQDIRNYLNWYQQKPGKAPKLLIYKASTLESGVPSRFSGSGSGTDFTLTISSLQPEDFATYYCQQANSFPLTFGPGTKVDIK
With B2, the values for the binding result in assay [1] and in assay [2] were “no binding” and “binds”, respectively.

B3: MAdCAM antibody Clone ID 56 of Table 6 (scFv) (scFv)
scFv: EVQLLESGGGLVQPGGSLRLSCAASGFTFDDYAMHWVRQAPGKGLEWVSAISGGGEDTYYADSVKGRFTISRDNSKNTLYLQMNSLRAEDTAVYYCARDASYGGNYGMDVWGQGTTVTVSSGGGGSGGGGSGGGGSGGGGSDIQMTQSPSSLSASVGDRVTITCQASQDIRNYLNWYQQKPGKAPKLLIYKASSLESGVPSRFSGSGSGTDFTLTISSLQPEDFATYYCQQANSYPVTFGGGTKVEIK
For B3, the binding result in assay [1] was “no binding”.

B4: MAdCAM antibody Clone ID 44 of Table 6 (scFv) (scFv)
scFv: EVQLVESGGGLVKPGGSLRLSCAASGFTFSSYWMSWVRQAPGKGLEWVSAIGTGGGTYYAAPVKGRFTISRDDSKNTLYLQMNSLKTEDTAVYYCAREWLVPYYGMDVWGQGTTVTVSSGGGGSGGGGSGGGGSGGGGSDIQMTQSPSSLSASVGDRVTITCRASQSISRWLAWYQQKPGKAPKLLIYGASNLQSGVPSRFSGSGSGTDFTLTISSLQPEDFATYYCQQSYSTPWTFGQGTKVEIK
In the case of B4, the binding result is reported as “no binding” in assay [1] and “binds” in assay [2].

B5: MAdCAM antibody Clone ID 12 of Table 6 (scFv) (scFv)
scFv: QVQLVQSGAEVKKPGASVKVSCKASGYTFTGYYMHWVRQAPGQGLEWMGWIGPNSGDTNYAQKFQGRVTMTRDTSTSTVYMELSSLRSEDTAVYYCARDLDHNWYFDLWGRGTLVTVSSGGGGSGGGGSGGGGSGGGGSDIVMTQSPLSLPVTPGEPASISCRSSQSLLHSNGYNYLDWYLQKPGQSPQLLIYSSSNRAPGVPDRFSGSGSGTDFTLKISRVEAEDVGVYYCMQALHIPLTFGGGTKVEIK
For the molecule B5, the binding result in assay [1] is “no binding”.

B6: MAdCAM antibody Clone ID 45 of Table 6 (scFv) (scFv)
scFv: EVQLLESGGGLVQPGGSLRLSCAASGFSVSSNYMSWVRQAPGKGLEWVAGISYDGSSKPYADSVKGRFTISRDNSKNTLYLQMNSLRAEDTAVYYCARSRGIAARPLQHWGQGTLVTVSSGGGGSGGGGSGGGGSGGGGSDIVMTQSPDSLAVSLGERATINCKSSQSVLYSSNNKNYLAWYQQKPGQPPKLLIYWASTRQSGVPDRFSGSGSGTDFTLTISSLQAEDVAVYYCHQYYGHPPTFGGGTKVEIK
Take B6: the binding result is “no binding” in assay [1] and “binds” in assay [2].

B7: MAdCAM antibody Clone ID 46 of Table 6 (scFv) (scFv)
scFv: EVQLLESGGGLVQPGGSLRLSCAASGFSVSSNYMSWVRQAPGKGLEWVAGISYDGSSKPYADSVKGRFTISRDNSKNTLYLQMNSLRAEDTAVYYCARSRGIAARPLQHWGQGTLVTVSSGGGGSGGGGSGGGGSGGGGSDIVMTQSPDSLAVSLGERATINCKSSQSVLYSSNNKNYLAWYQQKPGQPPKLLIYQASTRQSGVPDRFSGSGSGTDFTLTISSLQAEDVAVYYCHQYYGHPPTFGGGTKVEIK
B7: the binding result is reported as “no binding” in assay [1] and “binds” in assay [2].

B8: MAdCAM antibody Clone ID 9 of Table 7 (IgG) (antibody, V domains shown)
VH: QVQLVQSGAEVKKPGASVKVSCKASGYTFTSYYMHWVRQAPGQGLEWMGIINHSGGSTSYAQKFQGRVTMTRDTSTSTVYMELSSLRSEDTAVYYCARPYSGWYFAFDIWGQGTLVTVSS
VL: not shown
notes: IgG format
As for B8, the binding result in assay [3] was “no binding”.

B9: MAdCAM antibody Clone ID 40 of Table 6 (scFv) (scFv)
scFv: QVQLVQSGAEVKKPGASVKVSCKASGYTFTSYGISWVRQAPGQGLEWMGIINPRGGSTIFAQKFQGRVTMTRDTSTSTVYMELSSLRSEDTAVYYCARGTRSSGWYGWFDPWGQGTLVTVSSGGGGSGGGGSGGGGSGGGGSDIQMTQSPSSLSASVGDRVTITCRASQGIGNWLAWYQQKPGKAPKLLIYAASNLETGVPSRFSGSGSGTDFTLTISSLQPEDFATYYCQQIHSYPLTFGGGTKVEIK
For the molecule B9, the binding result was “no binding” in assay [1] and “binds” in assay [2].

B10: MAdCAM antibody Clone ID 48 of Table 6 (scFv) (scFv)
scFv: EVQLLESGGGLVQPGGSLRLSCAASGFTFSDHGMHWVRQAPGKGLEWVSVIYGGESTYYADSVKGRFTISRDNSKNTLYLQMNSLRAEDTAVYYCARDPAVAGGGIFDYWGQGTLVTVSSGGGGSGGGGSGGGGSGGGGSDIQMTQSPSSLSASVGDRVTITCRASQGISNYLAWYQQKPGKAPKLLIYDASNLETGVPSRFSGSGSGTDFTLTISSLQPEDFATYYCQQSYSTCYTFGQGTKLEIK
Turning to B10, the figures for the binding result in assay [1] and in assay [2] were “no binding” and “binds”, respectively.

B11: MAdCAM antibody Clone ID 26 of Table 7 (IgG) (antibody, V domains shown)
VH: EVQLLESGGGLVQPGGSLRLSCAASGFTFSSYAMSWVRQAPGKGLEWVSYISSSSTYTNYADSVKGRFTISRDNSKNTLYLQMNSLRAEDTAVYYCARANSSSWYDWYFDLWGQGTLVTVSS
VL: not shown
notes: IgG format
As for B11, the binding result in assay [3] was “no binding”.

B12: MAdCAM antibody Clone ID 27 of Table 7 (IgG) (antibody, V domains shown)
VH: EVQLLESGGGLVQPGGSLRLSCAASGFTFSSYQMSWVRQAPGKGLEWVSYISSSSTYTNYADSVKGRFTISRDNSKNTLYLQMNSLRAEDTAVYYCARANSSSWYDWYFDLWGQGTLVTVSS
VL: not shown
notes: IgG format
Turning to B12, the binding result in assay [3] is reported as “no binding”.

B13: MAdCAM antibody Clone ID 47 of Table 6 (scFv) (scFv)
scFv: EVQLLESGGGLVQPGGSLRLSCAASGFSFSDYGMHWVRQAPGKGLEWVSAISGSGGSTYYADSVKGRFTISRDNSKNTLYLQMNSLRAEDTAVYYCARDGGWQPAAILDYWGQGTLVTVSSGGGGSGGGGSGGGGSGGGGSDIQMTQSPSSLSASVGDRVTITCRASQGISNNLNWYQQKPGKAPKLLIYDASNLETGVPSRFSGSGSGTDFTLTISSLQPEDFATYYCQQSYSTPLTFGGGTKVEIK
Turning to B13, the binding result in assay [1] was “no binding”.

B14: MAdCAM antibody Clone ID 3 of Table 6 (scFv) (scFv)
scFv: QVQLVQSGAEVKKPGASVKVSCKASGYPFIGQYLHWVRQAPGQGLEWMGIINPSGGSTSYAQKFQGRVTMTRDTSTSTVYMELSSLRSEDTAVYYCAREGRLSYGMDAWGQGTLVTVSSGGGGSGGGGSGGGGSGGGGSDIQMTQSPSSLSASVGDRVTITCRASQSISSYLAWYQQKPGKAPKLLIYGASTLESGVPSRFSGSGSGTDFTLTISSLQPEDFATYYCQQTWGPPFTFGQGTKLEIK
Take B14: the binding result in assay [1] and in assay [2] was “binds” throughout.

B15: MAdCAM antibody Clone ID 49 of Table 6 (scFv) (scFv)
scFv: QVQLVQSGAEVKKPGASVKVSCKASGDTFTGYYIHWVRQAPGQGLEWMGWINPNSGGTNYAQKFQGRVTMTRDTSTSTVYMELSSLRSEDTAVYYCARSGLWLGSYYGMDVWGQGTLVTVSSGGGGSGGGGSGGGGSGGGGSDIQMTQSPSSLSASVGDRVTITCRASQTISIWLAWYQQKPGKAPKLLIYDASTLQSGVPSRFSGSGSGTDFTLTISSLQPEDFATYYCQQYSSYPLTFGQGTKVEIK
Turning to B15, the binding result in assay [1] is on record as “no binding”; in assay [2], “binds”.

B16: MAdCAM antibody Clone ID 25 of Table 6 (scFv) (scFv)
scFv: QVQLVQSGAEVKKPGASVKVSCKASGYTLTTWYMYWVRQAPGQGLEWMGWINPNRGATNYAQKFQGRVTMTRDTSTSTVYMELSSLRSEDTAVYYCAKGDLWGAMDVWGQGTLVTVSSGGGGSGGGGSGGGGSGGGGSDIQMTQSPSSLSASVGDRVTITCRASDNIGSWLAWYQQKPGKAPKLLIYAASSLQSGVPSRFSGSGSGTDFTLTISSLQPEDFATYYCQQGYSTPPTFGQGTKVEIK
Regarding B16, the binding result in assay [1] is reported as “no binding”.

B17: MAdCAM antibody Clone ID 30 of Table 6 (scFv) (scFv)
scFv: QVQLVQSGAEVKKPGASVKVSCKASGYTLTTWYMYWVRQAPGQGLEWMGWINPNRGATNYAQKFQGRVTMTRDTSTSTVYMELSSLRSEDTAVYYCAKGDLWGAMDVWGQGTLVTVSSGGGGSGGGGSGGGGSGGGGSDIQMTQSPSSLSASVGDRVTITCRASDNIGSWLAWYQQKPGKAPKLLIYAASSLQSGVPSRFSGSGSGTDFTLTISSLQPEDFATYYCQQGYSTPPTFGQGTKVEIK
Take B17: the binding result in assay [1] is reported as “no binding”.

Values taken from patent publication US20200392228A1 (PANDION OPERATIONS, published 2020).
